Reference: US20230329245A1, “COMPOSITIONS AND METHODS OF USE THEREOF” (Curie Co. Inc., priority 2020, published 2023)

What was measured:
Type in all cases: cell-based
[1] = tested on: Yeast or bacterial starter cultures; assay: Tgase biocidal activity on yeast or bacterial cultures (Example 2); settings: where biocidal activity could be observed with both enzymes
Method: A variant form of Streptomyces mobaraensis transglutaminase having the amino acid sequence depicted in SEQ ID NO:6 was prepared by literature methods (Javitt, et al. (2017) BMC Biotechnol. 17:23) as previously described. Tgase activity was measured using the colorimetric hydroxamate activity assay (Folk and Cole (1965) J Biol Chemistry 240(7):2951-2960). Tgase cytotoxic activity was assessed either using OD600 or a commercially available kit (BacTiter-Glo™, Promega®, following manufacturer's protocol).
(§1) Yeast or bacterial starter cultures were grown as described previously. Tgase (SEQ ID NO:6) was added to each culture at 0.001-1 weight percent. The cultures were grown overnight at 30° C.-37° C. and growth curves were measured by a BioTek® Synergy Plate Reader.

S. aureus ATCC 6538 = assay: MIC determination, S. aureus; settings: CAMHB pH 7.3, 37° C., 18 to 20 hours, duplicate
Method: A variant form of Streptomyces mobaraensis transglutaminase having the amino acid sequence depicted in SEQ ID NO:6 was prepared by literature methods with a hexa-his-tag to aid in purification (Javitt, et al. (2017) BMC Biotechnol. 17:23). The cells were grown in shake flasks, lysed by homogenization, and the Tgase variant (SEQ ID NO:6) was isolated from the cell debris by centrifugation. The resulting semi-purified enzyme (clarified lysate) were compared on an SDS-PAGE gel, by spectroscopy, and activity for concentration of active enzyme. The Tgase variant (SEQ ID NO:6) was further purified by affinity column on a Ni-IMAC resin prior to MIC assay. Tgase activity was measured in the examples herein using a colorimetric hydroxamate activity assay (Folk and Cole (1965) J Biol Chemistry 240(7):2951-2960). The enzyme was diluted to a working stock concentration of 2 mg/mL in CAMHB or RPMI media (bacterial or fungal media). This was then 2-fold serial diluted ten times in the appropriate media in a 96-well master plate to generate 2× starting concentrations for MIC testing.
Strains were acquired from the American Type Culture Collection (ATCC) (Manassas, VA) and maintained as −80° C. frozen glycerol stocks: S. aureus ATCC 6538, E. coli ATCC 8739, P. aeruginosa ATCC 9027, C. albicans ATCC 10231, and A. brasiliensis ATCC 16404. […]

[2] = tested on: A. brasiliensis ATCC 16404; assay: Minimum fungicidal concentration (MFC), A. brasiliensis; settings: no colonies recovered on SDA, duplicate
Method: Minimum fungicidal concentration (MFC) was determined by plating 10 microliters of liquid from each MFC test solution on the appropriate agar media for each test strain. The liquid was allowed to air dry in a biosafety cabinet, then the agar plates were incubated under the appropriate conditions: A. brasiliensis and C. albicans were grown on Sabouraud Dextrose Agar (SDA) plates. A. brasiliensis was grown at 25° C. for 5 to 7 days, while C. albicans was grown at 37° C. for 24 to 48 hours. Colony formation was then assessed. MFC is defined as the lowest concentration of the Tgase (SEQ ID NO:6) in which no colonies were recovered.

C. albicans ATCC 10231 = assay: Growth reduction of C. albicans culture (OD600 / BacTiter-Glo); settings: C. albicans ATCC 10231
Method: For MIC determination of yeast cultures, C. albicans ATCC 10231 was grown overnight (24 hours) in YPD media at 30° C. The following day, the cell density of the saturated cultures was calculated using OD600 and cultures were diluted to 10^4 to 10^6 CFU/mL in sterile YPD media to generate the inoculum, and 90 μL of the inoculum was combined with 10 μL of serially diluted Tgase SEQ ID NO:1 at a range of 0.0001-0.01 weight percent. The cultures were grown overnight at 30° C. and growth curves were measured by OD600 on a BioTek® Synergy Plate Reader. Optionally, the following day, a cell viability assay such as BacTiter-Glo™ (Promega®) following manufacturer's protocols) could be used to assess cell viability. A decrease in OD600 or luminescence indicated a decrease in cell viability. Results are presented as a percent reduction in cell count relative to an untreated culture. All test conditions were performed in triplicate.
as §1

B. subtilis BGSC 1A1276 = assay: Growth reduction of B. subtilis culture (OD600 / BacTiter-Glo)
Method: For MIC determination of bacterial cultures, E. coli ATCC 8739, DH5-alpha, DH10-beta, and B. subtilis BGSC 1A1276 was grown overnight (16-18 hours) in LB broth at 37° C. The following day, the cell density of the saturated cultures was calculated using OD600 and cultures were diluted to 10^4 to 10^6 CFU/mL in sterile LB media to generate the inoculum, and 90 μL of the inoculum was combined with 10 μL of serially diluted Tgase SEQ ID NO:1 at a range of 0.0001-0.01 weight percent in the presence or absence of 0.003% lysozyme (100-fold lower than the effective concentration). Growth curves were measured by OD600 on a BioTek® Synergy Plate Reader. Optionally, the following day, a cell viability assay such as BacTiter-Glo™ (Promega®) following manufacturer's protocols) could be used to assess cell viability. A decrease in OD600 or luminescence indicated a decrease in cell viability. Results are presented as a percent reduction in cell count relative to an untreated culture. All test conditions were performed in triplicate.
as §1

B1: Tgase (SEQ ID NO: 6): variant Streptomyces mobaraensis transglutaminase (SEQ ID NO:2) with N-terminal Methionine, C-terminal peptide linker and hexa-His-Tag (protein)
chain: MDPDDRVTPPAEPLDRMPDPYRPSYGRAETVVNNYIRKWQQVYSHRDGRKQQMTEEQREWLSYGCVGVTWVNSGQYPTNRLAFASFDEDRFKNELKNGRPRSGETRAEFEGRVAKESFDEEKGFQRAREVASVMNRALENAHDESAYLDNLKKELANGNDALRNEDARSPFYSALRNTPSFKERNGGNHDPSRMKAVIYSKHFWSGQDRSSSADKRKYGDPDAFRPAPGTGLVDMSRDRNIPRSPTSPGEGFVNFDYGWFGAQTEADADKTVWTHGNHYHAPNGSLGAMHVYESKFRNWSEGYSDFDRGAYVITFIPKSWNTAPDKVKQGWPLEHHHHHH
potency relative to Tgase SEQ ID NO:1 [1]: 10 fold
MIC (S. aureus ATCC 6538): >1,000 μg/mL
MFC [2]: 125 µg/mL
Fold improvement in enzyme efficacy (C. albicans ATCC 10231; Tgase (SEQ ID NO: 1) = 1): 10
Percent Growth Reduction (C. albicans ATCC 10231; enzyme concentration 80 ug/mL): 99.95%
Fold improvement in enzyme efficacy (B. subtilis BGSC 1A1276; Tgase (SEQ ID NO: 1) alone = 1): 12
Percent Growth Reduction (B. subtilis BGSC 1A1276; enzyme concentration 80 ug/mL): 99.77%
